Experimental data taken from US20190315838A1 (MIT, published 2019).

Assays:
[1] = target: T1, Zika virus envelope protein, strain ILM (Brazil Paraiba 2015) (Zika virus strain ILM (Brazil Paraiba …))
T1 construct: also called Zika strain ILM; Zika virus EP

[2] = target: T2, Zika virus envelope protein, strain MR766-NIID (Uganda 1947) (Zika virus strain MR766-NIID (Uganda …, UniProt Q32ZE1 291-790))
[3] = target: T2, Zika virus envelope protein, strain …; remark: listed apart in the source
[4] = target: T1, Zika virus envelope protein, strain ILM …; test: cell-based or functional assay
[5] = target: Zika virus envelope protein, strain H/PF/2013 (French Polynesia 2013) (Zika virus strain H/PF/2013 (French …, UniProt A0A024B7W1 291-794)); test: cell-based or functional assay

| Binder | Kd [1] | Kd [2] | EC50 (read off the curve) [3] | PRNT50 [4] | ADE, viral titers at peak enhancement in THP1.2S cells [5] | PRNT50 [5] |
| --- | --- | --- | --- | --- | --- | --- |
| mAb 7 (antibody, V domains shown, also called VH.2 / VL.4) VH: EVQLLESGGGLVQPGGSLRLSCAASGFSFSTYSMHWVRQAPGKGLEWVSAISGEGDSAYYADSVKGRFEISRDNSKNTLYLQMNKVRAEDTAVYYCVGGYSNFYYYYTMDAWGQGTMVTVSS VL: DIVMTQSPASLSLSPGERATLSCRATQSIVTFLAWYQQKPGQAPRLLIYDASTNASGIPARFSGSRSGTDFTLTITRLEPEDFAVYYCQQRYNWPPYSFGQGTKLEIK | 5.21 µg/mL | 0.0265 µg/mL | ~0.03 µg/mL |  |  |  |
| mAb 8 (antibody, V domains shown, also called VH.1 / VL.2) VH: EVQLLESGGGLVQPGGSLRLSCAASGFSFSTYSMHWVRQAPGKGLEWVSAISGEGDSAYYADSVKGRFTISRDNSKNTLYLQMNKVRAEDTAVYYCVGGYSNFYYYYTMDAWGQGTMVTVSS VL: DIVMTQSPASLSLSPGERATLSCRATQSISTFLAWYQQKPGQAPRLLIYDASTRASGIPARFSGSRSGTDFTLTITRLEPEDFAVYYCQQRYNWPPYSFGQGTKLEIK | 19.3 µg/mL |  | ~0.03 µg/mL | 5.12 µg/mL | ≥ 3 fold | 5.09 µg/mL |
| mAb 3 (antibody, V domains shown, also called VH.4 / VL.3) VH: EVQLVESGGGLVQPGGSLRLSCSASGFTFSTYSMHWVRQAPGKGLEYVSAITGEGDSAFYADSVKGRFTISRDNSKNTLYFEMNSLRPEDTAVYYCVGGYSNFYYYYTMDVWGQGTTVTVSS VL: EIVLTQSPATLSLSPGERATLSCRASQSISTFLAWYQHKPGQAPRLLIYDASTRATGVPARFSGSRSGTDFTLTISTLEPEDFAVYYCQQRYNWPPYTFGQGTKVEIK |  | 0.0248 µg/mL | ~0.8 µg/mL |  |  |  |
| mAb 6 (antibody, V domains shown, also called VH.3 / VL.1) VH: EVQLVESGGGLVQPGGSLRLSCSASGFSFSTYSMHWVRQAPGKGLEYVSAITGEGDSAFYADSVKGRFTISRDNSKNTLYFEMNSLRPEDTAVYYCVGGYSNFYYYYTMDAWGQGTSVTVSS VL: EIVLTQSPASLSLSPGERATLSCRATQSISTFLAWYQHKPGQAPRLLIYDASTRASGVPARFSGSRSGTDFTLTISSLEPEDFAVYYCQQRYNWPPYSFGQGTKVEIK | 3.85 µg/mL |  | ~0.03 µg/mL | 0.0597 µg/mL |  |  |
| fusion loop targeting pan-flavivirus antibody 4G2 (antibody, V domains shown) VH: EVQLQQSGPELVKPGTSVKISCKTSGYTFTEYTIHWVKQSHGKSLAWIGGIDPNSGGTNYSPNFKGKATLTVDKSSSTAYMDLRSLSSEDSAVYFCARIYHYDGYFDVWGAGTAVTVSS VL: DIKMTQSPSSMYASLGERVTITCKASQDINSYLTWFQQKPGKSPKTLIYRANRLIDGVPSRFSGSGSGQDYSLTISSLDYEDMGIYYCLQYDEFPPTFGGGTKLEIKR | 6.41 µg/mL |  |  |  |  |  |
